Literature values in paper PMC4351158 (Structure (London, England : 1993), 2015).

System: DegS
Conditions: substrate-saturated; ref Sohn and Sauer, 2009; cited from earlier work

B1: WT DegS: Wild-type E. coli DegS (residues 27–355) with N-terminal His6 tag replacing the membrane anchor (protein)
chain: RSLNPLSTPQFDSTDETPASYNLAVRRAAPAVVNVYNRGLNTNSHNQLEIRTLGSGVIMDQRGYIITNKHVINDADQIIVALQDGRVFEALLVGSDSLTDLAVLKINATGGLPTIPINARRVPHIGDVVLAIGNPYNLGQTITQGIISATGRIGLNPTGRQNFLQTDASINHGNSGGALVNSLGELMGINTLSFDKSNDGETPEGIGFAIPFQLATKIMDKLIRDGRVIRGYIGIGGREIAPLHAQGGGIDQLQGIVVNEVSPDGPAANAGIQVNDLIISVDNKPAISALETMDQVAEIRPGSVIPVVVMRDDKQLTLQVTIQEYPATN
modifications: left off: His6, N-terminal, state not stated
- DegS in the active conformation: ~ 0.3%
